# B1: putative short-chain dehydrogenase/reductase from Paraburkholderia xenovorans (His-PxSDR) (enzyme)
# chain: MSSAGRLQGKVALVTGAGCIGPGWGNGRAIAVRFAEEGAHVIAVDRDLASMDATLELVRAAGGSVTPCLCDVTDSASVERLVADSVARCGRVDILVNNVGAPSPGGPVALDEAQWAMQLELNLTTAFLMCKYVLPVMEQQGGGAIVNIASTSGIRWTGAAQVGYAAAKAGMIQMGRVVAVEYAAKNVRVNSVVPGLLHTPMVDTKIAHNQAGGDVELLLRKRQARIPMPFMGDGRDTANAALFLASDEARFVTGTEIVVDGGMSARCD
# notes: putative short-chain dehydrogenase/reductase (PxSDR), Paraburkholderia xenovorans strain LB400, UniProt Q13GE3, full length, amplified from genomic DNA; copies therefore left empty; also called P. xenovorans SDR; putative short-chain reductase; source: E. coli BL21(DE3)R3 Rosetta, purified (IMAC on Ni-NTA HisTrap FF, SEC on Superdex 75)
# Experiments:
# [1] = biological target: the molecule itself; test: SEC; Superdex 75, 25 mM HEPES pH 7.0, 500 mM NaCl, 5% glycerol, 2 mM DTT, 0.025% azide; second step of the purification; single large peak at ~76 kDa; self-association
# [2] = biological target: the molecule itself; test: crystal structure; apo PxSDR, space group P2(1), 1.45 Å; sitting drop, 0.2 M magnesium chloride, 0.1 M bis-Tris pH 5.5, 25% PEG 3350, 287 K; self-association: tetramer
protein,measurement,setting,value
B1,stoichiometry N,[1],2
same,stoichiometry N,[2],4

# Source: paper PMC8725002, “Crystal structure of a putative short-chain dehydrogenase/reductase from Paraburkholderia xenovorans” (Acta Crystallographica. Section F, Structural Biology …, 2022)
